Patent US20250270343A1 (Alector, published 2025)

Tests used:
[1] = molecular target: T1, full-length untagged human GPNMB expressed on cells (human, UniProt Q14956 23-572); experiment: FACS titration, FS293-huGPNMB+ cells
T1 construct: also used here for GPNMB on human monocyte-derived macrophages in the functional assays; also called huGPNMB; Freestyle293-huGPNMB+
T1 sequence: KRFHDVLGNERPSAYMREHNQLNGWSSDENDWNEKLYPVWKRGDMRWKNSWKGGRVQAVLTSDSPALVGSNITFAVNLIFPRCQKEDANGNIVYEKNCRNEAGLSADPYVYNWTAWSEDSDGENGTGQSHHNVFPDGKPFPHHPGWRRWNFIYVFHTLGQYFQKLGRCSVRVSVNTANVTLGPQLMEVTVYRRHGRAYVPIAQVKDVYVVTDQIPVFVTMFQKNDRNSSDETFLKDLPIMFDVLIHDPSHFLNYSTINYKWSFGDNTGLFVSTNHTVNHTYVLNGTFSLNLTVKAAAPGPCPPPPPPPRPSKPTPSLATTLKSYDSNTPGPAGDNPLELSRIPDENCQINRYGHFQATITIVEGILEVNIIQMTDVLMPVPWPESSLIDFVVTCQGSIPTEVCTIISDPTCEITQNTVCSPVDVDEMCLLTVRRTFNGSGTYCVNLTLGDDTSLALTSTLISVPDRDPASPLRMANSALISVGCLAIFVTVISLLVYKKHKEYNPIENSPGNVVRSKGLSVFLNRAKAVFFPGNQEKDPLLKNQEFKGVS
Method: Affinity matured anti-GPNMB antibodies of the present disclosure were examined to determine their ability to bind human and mouse GPNMB expressed on FS293-huGPNMB+ or B16F10 cells, respectively. Cell-based affinity measurements were performed to ascertain the apparent affinities of anti-GPNMB antibodies to cell-surface expressed GPNMB. Serial dilutions of anti-GPNMB antibodies of the present disclosure were added to 100,000 FS293-huGPNMB+ or B16F10 cells and allowed to achieve binding equilibrium at 4° C. After addition of fluorescently labeled secondary antibody and brief washing steps, MFI values as a function of titrated antibody concentration were recorded via FACS analysis. Equilibrium binding curves were fit using nonlinear regression analysis with Graphpad Prism 6 software.

[2] = molecular target: T2, soluble mouse GPNMB (recombinant extracellular domain) (mouse, UniProt Q99P91 23-502); experiment: SPR Biacore T200, IgG captured on Protein A/G; nb = no binding observed
T2 construct: also called moGPNMB; not shown: C-terminal polyhistidine or Avi-His tag
T2 sequence: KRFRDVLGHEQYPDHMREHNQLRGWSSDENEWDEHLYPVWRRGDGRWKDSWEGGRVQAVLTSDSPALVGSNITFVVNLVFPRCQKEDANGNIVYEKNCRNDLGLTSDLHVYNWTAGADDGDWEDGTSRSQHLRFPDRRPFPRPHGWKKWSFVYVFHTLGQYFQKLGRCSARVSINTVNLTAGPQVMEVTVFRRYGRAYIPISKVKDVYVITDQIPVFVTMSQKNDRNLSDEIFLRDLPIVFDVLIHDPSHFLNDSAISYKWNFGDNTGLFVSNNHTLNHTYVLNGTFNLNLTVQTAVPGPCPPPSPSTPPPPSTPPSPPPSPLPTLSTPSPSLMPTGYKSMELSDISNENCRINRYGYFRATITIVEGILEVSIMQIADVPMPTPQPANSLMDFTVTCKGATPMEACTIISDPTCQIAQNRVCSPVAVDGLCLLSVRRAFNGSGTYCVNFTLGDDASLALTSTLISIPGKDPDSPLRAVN

[3] = molecular target: T1, full-length untagged human GPNMB …; experiment: cell-based or functional assay
[4] = molecular target: T1, full-length untagged human GPNMB …; experiment: cell-based or functional assay; remark: listed apart in the source
[5] = molecular target: T3, soluble cynomolgus GPNMB (recombinant extracellular domain) (cynomolgus, UniProt Q14956 23-499 (human entry), limits assumed); experiment: SPR Biacore, IgG captured
T3 chain: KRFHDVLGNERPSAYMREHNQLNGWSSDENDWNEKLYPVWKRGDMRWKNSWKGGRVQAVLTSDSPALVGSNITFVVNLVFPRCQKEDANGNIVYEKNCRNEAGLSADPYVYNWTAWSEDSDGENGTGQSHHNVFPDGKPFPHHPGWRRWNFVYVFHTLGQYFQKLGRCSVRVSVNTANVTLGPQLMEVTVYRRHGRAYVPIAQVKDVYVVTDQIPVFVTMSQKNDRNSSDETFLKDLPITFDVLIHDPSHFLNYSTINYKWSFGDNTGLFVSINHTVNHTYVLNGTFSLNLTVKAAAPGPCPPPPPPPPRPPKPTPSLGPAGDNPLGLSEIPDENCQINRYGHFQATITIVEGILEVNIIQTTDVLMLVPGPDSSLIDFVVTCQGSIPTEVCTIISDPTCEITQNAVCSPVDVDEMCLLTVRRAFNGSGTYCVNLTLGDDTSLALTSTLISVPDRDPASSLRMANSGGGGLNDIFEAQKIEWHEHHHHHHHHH
Method: (§1) Binding kinetics of the humanized and affinity matured anti-GPNMB antibodies described above were evaluated using the Biacore T200 (Cytiva). Briefly, IgGs were diluted to 10 μg/mL and captured using a Protein A/G (ThermioFisher, #21186) surface on a CM5 chip that was prepared by amine coupling according to the instrument manufacturer's recommendations. The captured antibodies were tested for their ability to bind human, cynomolgus monkey, and mouse GPNMB recombinant proteins as follows.
(§2) Human, cynomolgus, and mouse GPNMB analytes were diluted in running buffer (HBS-EP+, Teknova, #8022, with 0.5 mg/ml BSA, MP Biomedicals LLC, #820451), to a concentration of 300 nM, then diluted 3-fold serially to 100 nM, 33 nM, and 11 nM. Each sample was injected for 2 minutes to allow association, followed by dissociation in buffer alone for 10 minutes. Each sample injection was followed by the regeneration of the chip with three 30-second injections of 10 mM glycine, pH 1.7. Fresh antibody was captured at the beginning of each cycle.
(§3) Data were analyzed using Biacore evaluation software to generate kinetic constants. The equilibrium dissociation constants (KD) were calculated from the fitted association and dissociation rate constants (k-on and k-off) for each of the anti-GPNMB antibodies.

[6] = molecular target: T4, soluble human GPNMB (recombinant extracellular domain) (human, UniProt Q14956 23-498); experiment: SPR Biacore, IgG captured
T4 construct: also called huGPNMB; recombinant human GPNMB extracellular domain; not shown: C-terminal polyhistidine or Avi-His tag
T4 sequence: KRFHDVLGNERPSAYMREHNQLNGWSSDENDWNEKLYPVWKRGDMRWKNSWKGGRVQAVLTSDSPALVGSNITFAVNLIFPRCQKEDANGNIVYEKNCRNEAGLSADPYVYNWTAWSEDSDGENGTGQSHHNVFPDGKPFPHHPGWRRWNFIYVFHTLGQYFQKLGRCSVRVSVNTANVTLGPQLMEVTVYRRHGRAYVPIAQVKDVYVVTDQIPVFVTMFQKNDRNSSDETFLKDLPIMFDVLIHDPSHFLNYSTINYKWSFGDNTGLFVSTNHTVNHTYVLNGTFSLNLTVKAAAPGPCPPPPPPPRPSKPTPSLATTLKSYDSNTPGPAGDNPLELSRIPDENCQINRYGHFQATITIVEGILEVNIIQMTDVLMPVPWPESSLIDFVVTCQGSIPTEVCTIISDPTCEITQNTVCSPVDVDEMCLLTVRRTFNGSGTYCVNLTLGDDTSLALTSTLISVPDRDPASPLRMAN
Method: as §1, §2, §3

[7] = molecular target: T1, full-length untagged human GPNMB …; experiment: cell-based or functional assay; remark: listed apart in the source
[8] = molecular target: T5, soluble mouse GPNMB-Fc polypeptide (Fc of human IgG1 or mouse IgG2A, not specified for the assay) (mouse, UniProt Q99P91 23-502); experiment: FACS, Fab2 blocking moGPNMB-Fc binding to SVEC4-10 cells
T5 construct: extracellular domain; also called moGPNMB-Fc; mGPNMB; not shown: Fc region of human IgG1 or mouse IgG2A; in the Fab2 assay detected with anti-human IgG1 secondary antibody
T5 sequence (looked up): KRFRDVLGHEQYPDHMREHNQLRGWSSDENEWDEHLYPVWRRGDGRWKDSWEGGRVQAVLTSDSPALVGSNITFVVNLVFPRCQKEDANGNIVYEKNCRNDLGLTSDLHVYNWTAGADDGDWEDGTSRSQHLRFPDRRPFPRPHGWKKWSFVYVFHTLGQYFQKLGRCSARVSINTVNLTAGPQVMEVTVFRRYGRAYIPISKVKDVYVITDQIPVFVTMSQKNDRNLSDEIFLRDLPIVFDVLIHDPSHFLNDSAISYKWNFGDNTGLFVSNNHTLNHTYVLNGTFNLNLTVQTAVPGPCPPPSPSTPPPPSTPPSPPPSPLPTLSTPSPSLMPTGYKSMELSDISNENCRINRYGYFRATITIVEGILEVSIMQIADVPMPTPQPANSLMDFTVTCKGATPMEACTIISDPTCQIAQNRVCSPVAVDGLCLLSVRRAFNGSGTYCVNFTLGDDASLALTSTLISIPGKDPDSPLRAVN
Method: Purified recombinant Fab2 fragments of select anti-GPNMB antibodies of the present disclosure were produced through transient transfection and purified. Briefly, 2 ug/mL soluble mouse or human GPNMB-Fc diluted in binding buffer was pre-complexed with increasing concentrations of anti-GPNMB Fab2 fragments in 96-well plates. Subsequently, 100,000 SVEC4-10 cells were added per well and incubated on ice for 30 minutes. Soluble moGPNMB-Fc or huGPNMB-Fc bound to cell surface was detected with fluorescent anti-human IgG1 secondary antibody and measured on FACSCanto. IC50 and EC50 values based on changes in MFI values were calculated for each antibody.

Binder | EC50 [1] | binding result [2] | Inflammasome: Fold Decrease IL-1β (max response at 0.3 µg/ml) [3] | EC50 PDL1 [4] | Fold Increase CD40 (max response at 1 µg/ml) [4] | Fold Increase PDL1 (max response at 1 µg/ml) [4] | Kd [5] | koff [5] | kon [5] | Kd [6] | koff [6] | kon [6] | EC50 GCase [7] | Fold Increase GCase (max response at 1 µg/ml) [7] | IC50 [8]
anti-GPNMB antibody GPN-96 (antibody, V domains shown) VH: QVQLVQSGAEVKKPGASVKVSCKASGYTFTSYWMHWVRQAPGQGLEWMGEINPYDQRTNYAQKFQGRVTMTVDKSTSTVYMELSSLRSEDTAVYYCARSTGNYAWFAYWGQGTLVTVSS VL: DIVMTQSPDSLAVSLGERATINCKASQDVSPSLAWYQQKPGQPPKLLIYRASYRYTGVPDRFSGSGSGTDFTLTISSLQAEDVAVYYCQQHYSIPLTFGGGTKVEIK | 0.652 nM | no binding (tested: 300 nM highest analyte concentration) | 0.525 fold | 0.58 nM | 1.72 fold | 1.9 fold | 3.2 nM | 0.00025 s⁻¹ | 77000 M⁻¹ s⁻¹ | 2.5 nM | 0.0002 s⁻¹ | 78000 M⁻¹ s⁻¹ | 0.23 nM | 1.31 fold | –
anti-GPNMB antibody GPN-98 (antibody, V domains shown) VH: QVQLVQSGAEVKKPGASVKVSCKASGYTFTSYWMHWVRQAPGQGLEWMGEINPYDQRTNYAQKFQGRVTMTVDKSTSTVYMELSSLRSEDTAVYYCARSTGNYAWFAYWGQGTLVTVSS VL: DIVMTQSPDSLAVSLGERATINCKASQDVSPSLAWYQQKPGQPPKLLIYSASYRYTGVPDRFSGSGSGTDFTLTISSLQAEDVAVYYCQQHYSIPLTFGGGTKVEIK | 0.407 nM | no binding (tested: 300 nM highest analyte concentration) | 0.664 fold | 1.24 nM | 1.71 fold | 1.97 fold | 14.6 nM | 0.0011 s⁻¹ | 74000 M⁻¹ s⁻¹ | 11.9 nM | 0.00091 s⁻¹ | 76000 M⁻¹ s⁻¹ | 0.25 nM | 1.39 fold | –
anti-GPNMB antibody GPN-97 (antibody, V domains shown) VH: QVQLVQSGAEVKKPGASVKVSCKASGYTFTSYWMHWVRQAPGQGLEWMGEINPYDQRTNYAQKFQGRVTMTVDKSTSTVYMELSSLRSEDTAVYYCARSTGNYAWFAYWGQGTLVTVSS VL: DIVMTQSPDSLAVSLGERATINCKTSQDVSPSLAWYQQKPGQPPKLLIYSGSYRYTGVPDRFSGSGSGTDFTLTISSLQAEDVAVYYCQQHYSIPLTFGGGTKVEIK | 0.546 nM | no binding (tested: 300 nM highest analyte concentration) | 0.476 fold | 0.75 nM | 1.73 fold | 2.05 fold | 8.2 nM | 0.00065 s⁻¹ | 79000 M⁻¹ s⁻¹ | 6.7 nM | 0.00054 s⁻¹ | 81000 M⁻¹ s⁻¹ | 0.22 nM | 1.36 fold | –
recombinant Fab2 fragment of anti-GPNMB antibody GPN-48 (other, also called GPN-48 Fab2) VH: QVQLQQSGPELVKPGASVKLSCRASGYGFSSFWMNWVKQRPGKGLEWIGRIYPGKGDTLYNGKFKDKATLTADESSSTAYMQLSSLTSEDSAVYFCARSIYYYDYWYFDVWDTGTTVTVSS VL: DIVMTQSHKFMSTSVGDRVNITCKASQDVNSAIAWYQQKPGQSPKLLIYSASYRFIGVPDRFTGSGSGTGFTFTISSVQAEDLAVYYCQQHYTTPLTFGAGTKLELK | – | – | – | – | – | – | – | – | – | – | – | – | – | – | 2.33 nM
recombinant Fab2 fragment of anti-GPNMB antibody GPN-52 (other, also called GPN-52 Fab2) VH: DVQLQESGPGLVKPSQTVFLTCTVTGISITTGNYRWSWIRQFPGNKLEWIGYIYYSGTITYNPSLTSRITITRDTPKNEFFLEMNSLTAEDTATYYCARDLTHWYFDVWGTGTTVTVSS VL: not shown | – | – | – | – | – | – | – | – | – | – | – | – | – | – | 3.19 nM
recombinant Fab2 fragment of anti-GPNMB antibody GPN-43 (other, also called GPN-43 Fab2) VH: EVQLQQSGPELVKPGASVKISCKASGYTFTDYYMNWVRQSHGKSLEWIGDINPYHGGSTYNQKIKVKATLTVDKSSSTAYMELRSLTSEDSAVYYCARNWPYFDYWGQGTTLTVSS VL: DIQMTQSPASLSASVGETVTITCRASENIYSFLVWYQQKQGKSPQLLVYNAKTLAEGVPSRFSGSGSGTQFSLKISSLQPEDFGSYYCQHHFGTPPYTFGGGTKLEIK | – | – | – | – | – | – | – | – | – | – | – | – | – | – | 9.42 nM
